Experimental data as given in the DeepSol protein solubility set.

Test: soluble on expression in E. coli; label from the status in PepcDB or PDB records

Row | Sequence | soluble on expression in E. coli
1 | MMHISVGATEMSWLSSLKSVFSPSQEVKEDDVQTILQSYSLENSSFVLKDRITQINVEGRILQLTIKTFPEEADHLQQIHDELADALQKAGIQELNLHVIQQKTAPRTEPKSSSSTTSSSSHLPPVVDASASPTPDPNNPPIQKKAPIQSEVPAHPRIKNVILVSSGKGGVGKSTTTVNLALALQKQGLKVGVLDADIYGPSIPTMLGNAGRTPKIENENFVPLDAYGLAVLSIGHLTGDNNTPVAWRGPKATGALMQLFNQTLWPDLDVLVIDMPPGTGDIQLTLAQRIPVTGALIVTTPQNVALLDASKGIELFNRVGIPVVGVIENMSTHICSNCGFEEQIFGVGGGDKLSEQYDIPLLGRLPLNAQIRENADKGQPSVIAQDTAAESYQMIAQALWTRVEQLPQRARDDKRIFLEHHHHHH | not soluble
2 | MMIDPELRPAFLPAGKLRAAINLGNPILAGTDAAGQAVGVSVDLAREFARRLNAGIELRVFDTAGQSVDAVTREEADIGFFAIDPARGAGIAFTGPYVLIEGAYLVRDDSPLQANEDVDRAGKRVTVGKGSAYDLHLTRALQHAEIVRAASSQAVVDTFLARRLDVAAGVKQQLQADARRVGGVRLLPGRFMVIRQAMGLPKARGDAAAACLDAFVESMKGNGFVAQALARHGLEHHHHHH | not soluble
3 | MMISIFSLLASTAILVFANGQSNVKLEFVQAMWRHGERASQVDQYPIYEKDWIYGGGGLGELTAIGMGEMNELGWLIRKRYVTKLKFLTPKYASREVYFRSTNFNRTIISAQSLLYGLFPPSLYDVKNVDYPYSPLTWFPGFTFVPVHVDGPDQCAASQNCPCTRYDLLQGQMLTLPEVLPKYTQVVLLNRRVGGYYNMTSGLDSFTTYPDTWKCQRAYFNRTMYAKLPWYNEELYYQAQVTYAPVKGFLEGNFENPAVTSSGLDVGLEIKKVRSGVIINEVFNRANEKLNCAELGQNCTSYLNKLKFYGYSIHDNNVYGVLVALGIPQIANTLDGWPAYAAGIFMEFHRNTSTNERFFKVLYREGDDTPISDVTSQLPICNGATLCPLGALQTLAETLKPLPDITTLCKTPL | not soluble
4 | MMIVKRFILGEYSTNTYLVVSGDEGILIDVAENPSEVIDYILTNNIKLKSIYATHGHFDHVLGVTEVKKYFNVPFFLHRSDLDLLRRDERTKGIVPDGFIDEKSIIKIGNEELKVIETPGHTMGSVCYIFDDGIFTGDTLFNGSIGRYDLGGDKNLLKKSLNRLMELNDGLTVYPGHGFFTTLGYEKLTNPFLNGEFEW | soluble
5 | MMKNFVCTTCGVQYAASVEEPVSCHICDEERQYVNPKGQSWTTLENLQTDDTYKNEIIKEENGLYSITTKPGFAIGQTAFVVKTESYRLLWDCITYLDETTITKIKELGGLDAIALSHPHYYSTQVEWAETFDVPIYIHEDDKEWVMRPSSRIIYWSGESLQLADGITVHRLGGHFSGGSVLHWEEGNDGKGILLTGDIIQVVADERWVSFMYSYPNLIPLPARKVEEMVNRVKPLQFNRLYNAFHRVVKENANEAVERSAERYIKAIEGKLFHT | not soluble
6 | MMKNMARKNQKAPWEEEEEIIWVSRTELKNDMLALQKLGEELVELKPSALAKFPLPEDLAEAIKDAQRFKNEARRRQLQYIGKLMRHIDPEPLQAALDKLRNKHSQTTALLHKLEQLRDRIVAEGDSAIEVAMEQYPEADRQRLRLLARQASKEKAGNKPPKSSREIFQLLKEAMLAKQEIEEESEDDLDSAE | not soluble
7 | MMKQHLDALKDSKYCPLWHDQDIRPETLPALSADTSCELLIVGGGFTGLWGALQAKERQPDADIILIEKTTISDGASGRNGGFLSSSLAHGETNTDHQFPGEADKLHQLGQQNLKEFIETLEHYNIDARYEKVGETSVATDQASVDALRATYESEKAQGEDVVWFNQEEMQAQVNSPTYLAGLWYRGGQDGVVDPARLCWGLKRVILELGVRIYEETPLTSLKKLGQDKMEVTCSDVKIISDKVLMATNAYRNPIGQARRSIIPVWDYQIATQPLSQEQLDSIGWHKSRHALSNHANMFHYYRFTKDNRITWGGGGAVRYYFNNGIDQSYADIPERFAQLSEEFFETFPQLKGIKFTHRWSGIIATSTRFCVVPGVAYDGRVAWAIGYTGLGVGASRFGARIGIELLGYKPSEILDMQFVKKKPIPWAPEPLRWIGVYLTHKALEKADANGGKRGLWLKLLDMLNLGFTCLEHHHHHH | not soluble
8 | MMKVLAFDTSSKALSVAVLNNMECLATVTINIKKNHSINLMPAIDFLMQSIDLEPQDLDRIVVAEGPGSYTGLRVAVATAKMLAYTLKIDLVGVSSLYALTNGFSENDLLVPLIDARRNNVYVGFYQNGDTVKPDCHTSLEEVLQEVGNKANVHFVGEVAAFFDQIKKALPHAKITETLPCAVAIGRKGQKMKSVNVDAFVPRYLKRVEAEENWLKNHCETNTEEYIKRVLEHHHHHH | not soluble
9 | MMLENKSINELYSIKLIEEADTKRLIKFMNKYMNSKHEFEMSKRIFLSDQILNQECYNDINIRSSIYNFYEEYIVMEKEGKIAALIALDINRNNLSKVLNLNLIICEEGEMSRLRDMFIFATEILPEYSIVEPTKIRTYIRENGIFTEYWKNKLMEAGFSHEVTRENEVGNGVALTTMIIKMK | not soluble
10 | MMLPKEIMMPNDNPYALHRVKVLKVYSLTETEKLFLFRFEDPELAEKWTFKPGQFVQLTIPGVGEVPISICSSPMRKGFFELCIRKAGRVTTVVHRLKPGDTVLVRGPYGNGFPVDEWEGMDLLLIAAGLGTAPLRSVFLYAMDNRWKYGNITFINTARYGKDLLFYKELEAMKDLAEAENVKIIQSVTRDPNWPGLKGRPQQFIVEANTNPKNTAVAICGPPRMYKSVFEALINYGYRPENIFVTLERRMKCGIGKCGHCNVGTSTSWKYICKDGPVFTYFDIVSTPGLLD | not soluble
11 | MMMDLNIRRVVLDVDKGLNRPTLVELAAAIEKVQGVEAVNIIVTEMDMETMGTNITVEGTNINYDELIETIENTGSAIHSVDEIAVGKRLIENVRR | not soluble
12 | MMNKDLSYCIVLSSEQLSYLAGSKYGIDRMKILNRLIEATVLEQTEYSKKGFAMTLQVGQAALSEVELSCKLGYDKKTISRVIDKMNQLGIVASVQSNRTSIHTQKCVSAWMLDGKRIDNPFYVRMKNRKDGNEKTANRPYNNSILPMKQQHILESNAEANCPTQTQTDNTAVSDETYSPDLSTSPTSSETPVTAYDDKNRNGYDELKAETNNHELLHTPTTTSGYEIAGNGSDNDAAQVNSTSAYPTTTLASPQPLAEEEPTNDQGNDWQL | not soluble
13 | MMNKKEARTLIKERRMNLSKEYIDVASDKIFEKLLQNEDFKNVKTVMSYMDFKNEVKTDRINTFIKNSGKILVLPKVVDKETMIVIEDKNQYIVSPFGNKEPDGEEYKGSIDVIITPGVAFDRDKNRVGFGRGYYDRFFVKQPNAKKIAIAFEKQIIDEGIETDKYDKKVDILITEDEIIKLEHHHHHH | soluble
14 | MMPKVYGSLVDNETRCTHYHTFLDVIAIKFKCCNKYYPCYQCHEEHETHPIKRWSEQEFDEKAIMCGVCKHEMSIQDYMMTELCPKCQAHFNSRCKFHYHLYFELLEHHHHHH | not soluble
15 | MMQTSTSSRVRRYPYQITLSLVLKGFYSPSAPSYDFCLVLLPTLFLIDLMPIKFSLHVTIGIGEATPVPIFFFSAPWYFRSGNPLPHCVRAYRCKVNFPFFRLGWSTWLHY | soluble
16 | MMRDSPSIQGTLDAATQHALLAGRHADPFSVLGPHQAGAHTVVRVLAPGARTVMAVLPGGQRTPLLPMQPGLFENTVPGLQPGAPAAYRLCIEWEGGIQHTADPYAFGPVLD | not soluble
17 | MMSGAEEPVAIIFPQSASDGVEVLYQEFSFGRYFNQIAAGVLRGIVQTRQPRQPLRILEVGGGTGGTTAWLLPELNGVPALEYHFTDISALFTRRAQQKFADYDFVKYSELDLEKEAQSQGFQAQSYDLIVAANVIHATRHIGRTLDNLRPLLKPGGRLLMREITQPMRLFDFVFGPLVLPLQDLDAREGELFLTTAQWQQQCRHAGFSKVAWLPQDGSPT | not soluble
18 | MMSNQTVYQFIAENQNELLQLWTDTLKELSEQESYQLTDQVYENISKEYIDILLLSVKDENAAESQISELALRAVQIGLSMKFLATALAEFWKRLYTKMNDKRLPDQESTELIWQIDRFFSPINTEIFNQYSISWE | soluble
